The numbers were not newly measured in publication PMC12152952, which cites them from elsewhere.

The target in this series is EphA2 (ephrin type-A receptor 2) (UniProt P29317). Particulars: 2'-fluoro on lowercase residues (all C and U; 2'-F pyrimidines), A and G are ribo.
Sequence of EphA2 (ephrin type-A receptor 2) (P29317 24-537): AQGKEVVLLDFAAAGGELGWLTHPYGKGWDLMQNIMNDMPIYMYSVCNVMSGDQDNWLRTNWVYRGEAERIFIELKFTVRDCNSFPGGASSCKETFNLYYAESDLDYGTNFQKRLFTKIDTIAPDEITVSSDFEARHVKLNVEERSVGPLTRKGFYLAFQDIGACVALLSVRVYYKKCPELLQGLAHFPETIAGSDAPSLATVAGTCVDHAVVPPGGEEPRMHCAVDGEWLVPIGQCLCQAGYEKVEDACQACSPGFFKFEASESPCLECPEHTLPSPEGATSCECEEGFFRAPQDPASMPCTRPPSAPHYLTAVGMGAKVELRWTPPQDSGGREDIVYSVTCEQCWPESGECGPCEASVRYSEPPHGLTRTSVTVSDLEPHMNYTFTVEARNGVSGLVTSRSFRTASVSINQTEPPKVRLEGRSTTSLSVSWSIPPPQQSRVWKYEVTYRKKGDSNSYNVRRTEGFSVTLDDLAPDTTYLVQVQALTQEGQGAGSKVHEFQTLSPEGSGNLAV

Turning to CCUGUUGUUCGACAGGAGGCUCACAACAGG [A40s], the Kd (usually a measure of binding affinity in units of concentration) is 0.76 nM.
